Laboratory results as given in paper PMC7933254.

Target: RhoA (blot label: Myc (RhoA); legend: RhoA-GFP)
Assay: co-immunoprecipitation (IP: Myc (RhoA)) with densitometry
Conditions: MN-1 cells, mean ± SEM, parent: est. 1.0, read off a plot

In the case of “TRPV4-FLAG (wild type), expressed in MN-1 cells (from UniProt Q9HBA0) R237L”, the ratio to parent (R237L TRPV4-FLAG alone, no TRPV4-GFP co-expressed (lane 4), n = 5) is reported as 0.05 and the ratio to parent (R237L TRPV4-FLAG co-expressed with WT TRPV4-GFP (lane 5), n = 4) is reported as 0.04.
